Measured values as given in patent publication US20240010735A1 (EISAI R AND D MANAGEMENT, published 2024).

Assays:
Test in all cases: ELISA: SEAP-His proteins (1 nM) captured on anti-6-His antibody, antibody B 10 µg/mL with human IgG 100 µg/mL, HRP anti-human IgG, OD450 as % of human EphA4-SEAP-His
[1] = biological target: T1, human EphA8 extracellular region-SEAP-His protein (human, UniProt P29322 28-542)
T1 construct: extracellular domain; also called Eph receptor extracellular region-SEAP-His protein; not shown: secretory alkaline phosphatase (SEAP); histidine tag
T1 sequence (looked up): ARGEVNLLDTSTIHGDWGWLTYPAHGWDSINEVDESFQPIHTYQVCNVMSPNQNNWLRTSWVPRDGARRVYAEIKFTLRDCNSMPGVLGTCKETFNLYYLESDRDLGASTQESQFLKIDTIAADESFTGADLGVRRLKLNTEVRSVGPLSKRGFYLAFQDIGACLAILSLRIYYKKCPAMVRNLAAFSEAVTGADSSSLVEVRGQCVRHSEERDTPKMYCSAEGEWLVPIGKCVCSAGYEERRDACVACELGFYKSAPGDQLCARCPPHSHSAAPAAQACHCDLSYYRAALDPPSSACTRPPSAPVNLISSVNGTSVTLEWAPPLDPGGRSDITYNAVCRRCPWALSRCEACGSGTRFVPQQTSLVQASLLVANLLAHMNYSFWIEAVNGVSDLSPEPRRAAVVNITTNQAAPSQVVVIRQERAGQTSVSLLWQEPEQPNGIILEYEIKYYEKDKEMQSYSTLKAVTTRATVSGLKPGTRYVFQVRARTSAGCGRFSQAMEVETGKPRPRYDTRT

[2] = biological target: T2, human EphA10 extracellular region-SEAP-His protein (human, UniProt Q5JZY3 34-565)
T2 construct: extracellular domain; also called Eph receptor extracellular region-SEAP-His protein; not shown: secretory alkaline phosphatase (SEAP); histidine tag
T2 sequence (looked up): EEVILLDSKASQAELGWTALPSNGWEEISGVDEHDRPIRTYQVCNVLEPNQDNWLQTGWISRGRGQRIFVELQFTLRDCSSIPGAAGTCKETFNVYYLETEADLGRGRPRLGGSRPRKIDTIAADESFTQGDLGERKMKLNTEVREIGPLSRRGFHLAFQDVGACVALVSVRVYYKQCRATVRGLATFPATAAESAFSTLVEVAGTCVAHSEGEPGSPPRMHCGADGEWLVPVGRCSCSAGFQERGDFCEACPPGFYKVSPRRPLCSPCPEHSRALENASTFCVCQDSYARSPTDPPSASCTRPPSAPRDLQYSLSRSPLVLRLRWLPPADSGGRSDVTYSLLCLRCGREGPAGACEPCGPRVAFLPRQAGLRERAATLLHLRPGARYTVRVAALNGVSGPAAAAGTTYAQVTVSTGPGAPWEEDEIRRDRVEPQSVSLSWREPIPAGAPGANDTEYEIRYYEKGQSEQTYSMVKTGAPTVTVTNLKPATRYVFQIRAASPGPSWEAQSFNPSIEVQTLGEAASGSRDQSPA

[3] = biological target: T3, human EphB1 extracellular region-SEAP-His protein (human, UniProt P54762 18-540)
T3 construct: extracellular domain; also called Eph receptor extracellular region-SEAP-His protein; not shown: secretory alkaline phosphatase (SEAP); histidine tag
T3 sequence (looked up): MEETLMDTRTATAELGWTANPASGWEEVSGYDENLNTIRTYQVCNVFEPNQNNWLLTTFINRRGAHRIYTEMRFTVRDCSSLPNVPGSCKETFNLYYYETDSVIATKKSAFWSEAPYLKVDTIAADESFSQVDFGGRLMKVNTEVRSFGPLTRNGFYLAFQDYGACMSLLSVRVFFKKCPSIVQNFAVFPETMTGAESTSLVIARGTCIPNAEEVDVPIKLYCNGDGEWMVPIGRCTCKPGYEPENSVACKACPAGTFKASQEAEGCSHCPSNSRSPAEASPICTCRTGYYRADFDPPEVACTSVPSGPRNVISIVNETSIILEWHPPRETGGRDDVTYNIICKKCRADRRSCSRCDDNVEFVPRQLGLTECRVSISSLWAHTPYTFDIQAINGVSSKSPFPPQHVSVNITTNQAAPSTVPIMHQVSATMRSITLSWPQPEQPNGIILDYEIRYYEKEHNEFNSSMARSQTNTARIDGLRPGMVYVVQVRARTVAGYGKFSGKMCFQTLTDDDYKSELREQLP

[4] = biological target: T4, human EphB6 extracellular region-SEAP-His protein (human, UniProt O15197 32-594)
T4 construct: extracellular domain; also called Eph receptor extracellular region-SEAP-His protein; not shown: secretory alkaline phosphatase (SEAP); histidine tag
T4 sequence (looked up): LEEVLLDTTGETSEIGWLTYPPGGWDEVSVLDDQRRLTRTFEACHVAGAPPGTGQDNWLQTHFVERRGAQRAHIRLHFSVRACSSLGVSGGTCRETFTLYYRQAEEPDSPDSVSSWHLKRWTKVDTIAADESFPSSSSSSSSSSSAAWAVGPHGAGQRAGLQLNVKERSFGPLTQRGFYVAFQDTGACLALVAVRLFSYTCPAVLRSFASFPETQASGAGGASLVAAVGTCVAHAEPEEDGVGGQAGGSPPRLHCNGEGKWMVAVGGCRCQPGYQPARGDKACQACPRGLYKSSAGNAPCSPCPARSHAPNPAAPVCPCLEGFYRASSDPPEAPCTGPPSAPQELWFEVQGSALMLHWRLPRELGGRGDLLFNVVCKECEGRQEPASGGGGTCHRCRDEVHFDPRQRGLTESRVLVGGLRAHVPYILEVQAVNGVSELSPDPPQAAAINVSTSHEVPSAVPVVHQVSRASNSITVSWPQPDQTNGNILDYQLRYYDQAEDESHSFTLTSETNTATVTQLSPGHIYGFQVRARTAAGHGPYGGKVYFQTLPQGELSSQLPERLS

Measured: binding result

B1: humanized anti-EphA4 monoclonal antibody (antibody B) (antibody, human IgG2, V domains shown)
VH: QVQLVESGGGVVQPGRSLRLSCAVSGFSLTRFGVHWVRQAPGKGLEWVAVIWRGGSTDYNAAFMSRLTISKDNSKNTVYLQMNSLRAEDTAVYYCAKESLFGVYYDYGYYSMDYWGQGTTVTVSS
VL: DIQMTQSPSSLSASVGDRVTITCRASQEISGYLSWLQQKPGKAPKRLIYAASTLDSGVPSRFSGSRSGTEYTLTISSLQPEDFATYYCLQYASYPLTFGGGTKVEIKR
notes: expressed in Expi293F cells; also called humanized antibody of antibody A; HK2-42 / L1-8
no binding (tested: 10 µg/mL): all assays above
